In this assay the target is T1, C3b (UniProt P01024 23-667; P01024 749-1663).
T1 construct: Amine-coupled to a CM5 Biacore chip in the SPR assays; in solution in the cofactor assay; also called complement C3b
Nature of the assay: SPR (Biacore), C3b amine-coupled to a CM5 chip, steady-state fit over two flow cells (1540 and 3030 RU of C3b). The protocol: FIG. 3G—(i) and (ii)—Use of SPR to measure affinity of (i)rFH and (ii) plasma-purified FH for C3b coupled to aCM5 sensor chip (Biacore). Duplicate sensorgrams are shown for a concentration series (5.4 μM, 1.0 μM, 0.5 μM, 0.1 μM) flowed over 1540 response units of immobilised C3b. (iii) and (iv)—Plots of response units versus (iii)rFH or (iv) plasma-purified FH concentrations for two different flow cells with either 1540 RUs (lower curve in each plot) or 3030 RUs (upper curve in each plot) of C3b.

This passage reports Kd results from patent publication US20150139975A1 (published 2015).

As a reminder, the Kd is the concentration at which binding is half-saturated. Lower therefore signals a tighter complex.

T1 sequence (P01024 23-667 limits assumed, chain 1 of 2): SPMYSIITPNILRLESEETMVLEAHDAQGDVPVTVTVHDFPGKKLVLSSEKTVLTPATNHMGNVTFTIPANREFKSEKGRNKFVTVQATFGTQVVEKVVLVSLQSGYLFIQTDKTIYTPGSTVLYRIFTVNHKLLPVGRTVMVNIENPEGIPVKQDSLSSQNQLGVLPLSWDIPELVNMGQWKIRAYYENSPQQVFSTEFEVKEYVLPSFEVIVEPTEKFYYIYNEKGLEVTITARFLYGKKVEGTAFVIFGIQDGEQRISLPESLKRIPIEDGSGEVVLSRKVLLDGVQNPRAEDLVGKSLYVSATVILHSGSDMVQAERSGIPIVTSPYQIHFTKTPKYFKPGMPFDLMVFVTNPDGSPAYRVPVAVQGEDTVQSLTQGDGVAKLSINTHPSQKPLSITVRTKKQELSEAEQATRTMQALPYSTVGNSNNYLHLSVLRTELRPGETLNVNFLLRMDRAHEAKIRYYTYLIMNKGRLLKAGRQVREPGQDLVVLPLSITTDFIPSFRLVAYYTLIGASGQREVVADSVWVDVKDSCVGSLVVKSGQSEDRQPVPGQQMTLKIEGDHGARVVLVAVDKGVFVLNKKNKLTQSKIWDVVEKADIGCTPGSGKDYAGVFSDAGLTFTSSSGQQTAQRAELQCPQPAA
T1 sequence (P01024 749-1663 limits assumed, chain 2 of 2): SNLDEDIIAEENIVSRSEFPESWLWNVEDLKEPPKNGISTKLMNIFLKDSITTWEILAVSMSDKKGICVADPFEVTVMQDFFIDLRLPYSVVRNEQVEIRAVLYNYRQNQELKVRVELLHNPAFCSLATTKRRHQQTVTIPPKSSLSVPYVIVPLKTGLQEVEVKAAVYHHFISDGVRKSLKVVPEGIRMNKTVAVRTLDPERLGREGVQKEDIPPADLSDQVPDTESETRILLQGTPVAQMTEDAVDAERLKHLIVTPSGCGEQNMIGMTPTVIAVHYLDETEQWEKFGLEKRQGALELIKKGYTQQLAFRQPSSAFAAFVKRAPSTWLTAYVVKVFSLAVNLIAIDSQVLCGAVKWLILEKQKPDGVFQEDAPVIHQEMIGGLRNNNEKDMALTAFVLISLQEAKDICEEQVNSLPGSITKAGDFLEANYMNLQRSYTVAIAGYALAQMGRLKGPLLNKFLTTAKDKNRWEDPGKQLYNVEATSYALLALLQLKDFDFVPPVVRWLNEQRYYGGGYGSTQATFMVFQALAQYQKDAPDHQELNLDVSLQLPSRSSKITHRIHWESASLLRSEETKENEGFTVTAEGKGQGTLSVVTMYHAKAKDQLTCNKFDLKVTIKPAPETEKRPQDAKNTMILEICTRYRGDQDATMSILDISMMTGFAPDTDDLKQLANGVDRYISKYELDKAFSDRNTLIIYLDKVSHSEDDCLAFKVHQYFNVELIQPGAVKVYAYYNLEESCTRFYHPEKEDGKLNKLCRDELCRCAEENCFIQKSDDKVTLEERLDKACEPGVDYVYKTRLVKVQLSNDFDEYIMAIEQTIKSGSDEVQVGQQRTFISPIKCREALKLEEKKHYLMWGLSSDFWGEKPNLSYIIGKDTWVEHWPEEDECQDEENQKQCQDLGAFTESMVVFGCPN

B1: recombinant human complement factor H (rFH) expressed from codon-optimised DNA in Pichia pastoris (other, UniProt P08603 19-1231, looked up)
chain: EDCNELPPRRNTEILTGSWSDQTYPEGTQAIYKCRPGYRSLGNIIMVCRKGEWVALNPLRKCQKRPCGHPGDTPFGTFTLTGGNVFEYGVKAVYTCNEGYQLLGEINYRECDTDGWTNDIPICEVVKCLPVTAPENGKIVSSAMEPDREYHFGQAVRFVCNSGYKIEGDEEMHCSDDGFWSKEKPKCVEISCKSPDVINGSPISQKIIYKENERFQYKCNMGYEYSERGDAVCTESGWRPLPSCEEKSCDNPYIPNGDYSPLRIKHRTGDEITYQCRNGFYPATRGNTAKCTSTGWIPAPRCTLKPCDYPDIKHGGLYHENMRRPYFPVAVGKYYSYYCDEHFETPSGSYWDHIHCTQDGWSPAVPCLRKCYFPYLENGYNQNYGRKFVQGKSIDVACHPGYALPKAQTTVTCMENGWSPTPRCIRVKTCSKSSIDIENGFISESQYTYALKEKAKYQCKLGYVTADGETSGSITCGKDGWSAQPTCIKSCDIPVFMNARTKNDFTWFKLNDTLDYECHDGYESNTGSTTGSIVCGYNGWSDLPICYERECELPKIDVHLVPDRKKDQYKVGEVLKFSCKPGFTIVGPNSVQCYHFGLSPDLPICKEQVQSCGPPPELLNGNVKEKTKEEYGHSEVVEYYCNPRFLMKGPNKIQCVDGEWTTLPVCIVEESTCGDIPELEHGWAQLSSPPYYYGDSVEFNCSESFTMIGHRSITCIHGVWTQLPQCVAIDKLKKCKSSNLIILEEHLKNKKEFDHNSNIRYRCRGKEGWIHTVCINGRWDPEVNCSMAQIQLCPPPPQIPNSHNMTTTLNYRDGEKVSVLCQENYLIQEGEEITCKDGRWQSIPLCVEKIPCSQPPQIEHGTINSSRSSQESYAHGTKLSYTCEGGFRISEENETTCYMGKWSSPPQCEGLPCKSPPEISHGVVAHMSDSYQYGEEVTYKCFEGFGIDGPAIAKCLGEKWSHPPSCIKTDCLSLPSFENAIPMGEKKDVYKAGEQVTYTCATYYKMDGASNVTCINSRWTGRPTCRDTSCVNPPTVQNAYIVSRQMSKYPSGERVRYQCRSPYEMFGDEEVMCLNGNWTEPPQCKDSTGKCGPPPPIDNGDITSFPLSVYAPASSVEYQCQNLYQLEGNKRITCRNGQWSEPPKCLHPCVISREIMENYNIALRWTAKQKLYSRTGESVEFVCKRGYRLSSRSHTLRTTCWDGKLEYPTCAKR
modifications: N-glycans removed with Endo Hf after expression
notes: mature; also called rhFH; recombinant FH
B1 gave a Kd of 1.4 µM.

B2: plasma-purified human factor H (other, UniProt P08603 19-1231, looked up)
chain: EDCNELPPRRNTEILTGSWSDQTYPEGTQAIYKCRPGYRSLGNVIMVCRKGEWVALNPLRKCQKRPCGHPGDTPFGTFTLTGGNVFEYGVKAVYTCNEGYQLLGEINYRECDTDGWTNDIPICEVVKCLPVTAPENGKIVSSAMEPDREYHFGQAVRFVCNSGYKIEGDEEMHCSDDGFWSKEKPKCVEISCKSPDVINGSPISQKIIYKENERFQYKCNMGYEYSERGDAVCTESGWRPLPSCEEKSCDNPYIPNGDYSPLRIKHRTGDEITYQCRNGFYPATRGNTAKCTSTGWIPAPRCTLKPCDYPDIKHGGLYHENMRRPYFPVAVGKYYSYYCDEHFETPSGSYWDHIHCTQDGWSPAVPCLRKCYFPYLENGYNQNYGRKFVQGKSIDVACHPGYALPKAQTTVTCMENGWSPTPRCIRVKTCSKSSIDIENGFISESQYTYALKEKAKYQCKLGYVTADGETSGSITCGKDGWSAQPTCIKSCDIPVFMNARTKNDFTWFKLNDTLDYECHDGYESNTGSTTGSIVCGYNGWSDLPICYERECELPKIDVHLVPDRKKDQYKVGEVLKFSCKPGFTIVGPNSVQCYHFGLSPDLPICKEQVQSCGPPPELLNGNVKEKTKEEYGHSEVVEYYCNPRFLMKGPNKIQCVDGEWTTLPVCIVEESTCGDIPELEHGWAQLSSPPYYYGDSVEFNCSESFTMIGHRSITCIHGVWTQLPQCVAIDKLKKCKSSNLIILEEHLKNKKEFDHNSNIRYRCRGKEGWIHTVCINGRWDPEVNCSMAQIQLCPPPPQIPNSHNMTTTLNYRDGEKVSVLCQENYLIQEGEEITCKDGRWQSIPLCVEKIPCSQPPQIEHGTINSSRSSQESYAHGTKLSYTCEGGFRISEENETTCYMGKWSSPPQCEGLPCKSPPEISHGVVAHMSDSYQYGEEVTYKCFEGFGIDGPAIAKCLGEKWSHPPSCIKTDCLSLPSFENAIPMGEKKDVYKAGEQVTYTCATYYKMDGASNVTCINSRWTGRPTCRDTSCVNPPTVQNAYIVSRQMSKYPSGERVRYQCRSPYEMFGDEEVMCLNGNWTEPPQCKDSTGKCGPPPPIDNGDITSFPLSVYAPASSVEYQCQNLYQLEGNKRITCRNGQWSEPPKCLHPCVISREIMENYNIALRWTAKQKLYSRTGESVEFVCKRGYRLSSRSHTLRTTCWDGKLEYPTCAKR
notes: mature; Bought, plasma-derived; also called FH; plasma FH
Turning to B2, the Kd was 2.9 µM.
